Assay results published in patent US7572594B2, “Screening assays for agonists or antagonists or receptor activator of NF-κB” (Immunex Corporation, priority 2000, dated 2009).

What was measured:
[1] = tested on: endogenous c-jun kinase (JNK); assay: JNK immune-complex kinase assay in transfected 3T3 cells; type: cell-based, murine; conditions: 3T3 cells 24 hours after transfection, absence of RANK-L stimulation
Method: This example describes evaluating murine 3T3 cells transfected with plasmids containing DNA encoding human FEO RANK (SEQ ID NO:9), and murine 3T3 cells expressing recombinant DNA encoding human wild type RANK (SEQ ID NO:1) for their relative ability to activate endogenous c-jun kinase (JNK) in the absence of RANK-L stimulation. JNK is known to be activated as a consequence of RANK signal transduction.
For JNK assays, whole cell extracts were prepared from 3T3 cells 24 hours after transfection. Cells were lysed in a buffer containing 20 mM HEPES, pH 7.4, 2 mM EGTA, 50 mM β-glycerol phosphate, 1 mM DTT, 1 mM sodium orthovanadate, 1% Triton-X 100, 10% glycerol and the protease inhibitors leupeptin, pepstatin A, and PMSF. Clarified lysates were immunoprecipitated with 1 μg each anti-JNK (FL) and anti-JNK (C17) antibodies (both from Santa Cruz Biotechnology, Inc. Santa Cruz, Calif.). […] JNK activity was determined by an immune-complex assay using 1 μg of a fusion protein of glutathione-S-transferase and amino acids 1-169 of […] (GST-cJun (1-169)) (UBI, Lake Placid, N.Y.) and 5 μCi of [^32P]-ATP as substrate in 40 μl of assay buffer at 30° C. for 20 min. […]

[2] = tested on: murine MMP-9 promoter (SEQ ID NO:11); assay: murine MMP-9 promoter/luciferase reporter in 293/EBNA cells; type: cell-based; conditions: 40 ng reporter
Description: This example describes the activation of the TRAP promoter. A 2.6 kb DNA fragment containing the human TRAP promoter was obtained by digesting the plasmid pBL2HT2.2 with the restriction endonuclease ApaI. The cloning of the human TRAP gene 5′ region and the construction of pBL2HT2.2 are fully described in Reddy et al. (Bone 16:587-593 (1995)). A DNA containing the mouse TRAP promoter (SEQ ID NO:12) and a DNA containing the murine MMP-9 promoter (SEQ ID NO:11) also were used for these experiments. DNAs containing the promoters were fused to the luciferase reporter gene. These promoter/reporter constructs were transfected into human 293/EBNA cells along with various combinations of expression vectors that encoded full-length human RANK (SEQ ID NO:2) and human full-length RANK-L proteins (SEQ ID NO:6).
For the murine MMP-9 promoter experiments, 4.1 kb of the murine MMP-9 promoter (SEQ ID NO:11) were fused to a luciferase gene and transfected (40 ng) into 293/EBNA cells. Transfection of either RANK (SEQ ID NO:2) alone or the combination of RANK (SEQ ID NO:2) plus RANK-L (SEQ ID NO:6) increased reporter expression 2.5-fold.

RANK = assay: radioimmune assay of reporter surface expression in 293/EBNA cells; type: cell-based; conditions: 48 hours after transfection
Method: Additionally, surface expression of human IL-2α receptor can be analyzed using a radioactive antibody against IL-2α receptor. For the mIL-4R-specific radioimmune assay, mouse anti-human IL-2α monoclonal antibody reactive with mIL-4R was labeled with ^125I via a Chloramine T conjugation method; the resulting specific activity is typically […]. After 48 hours, cells transfected with pGL2-MMP-9/human IL-2 receptor were washed once with media (DMEM, 12 5% FBS). Non-specific binding sites were blocked by the addition of pre-warmed binding media containing 5% non-fat dry milk and incubation at 37° C./5% CO2 in a tissue culture incubator for one hour. The blocking media was decanted and binding buffer containing ^125I anti-mIL-4R (clone M1; rat IgG1) was added to the cells and incubated with rocking at room temperature for 1 hour. After incubation of the cells with the radio-labeled antibody, cells were washed extensively with binding buffer (2 X) and twice with phosphate-buffered saline (PBS). Cells were lysed in 1 ml of 0.5M NaOH, and total radioactivity measured with a gamma counter.

[3] = tested on: primary hematopoietic cells from the RANK −/− mice; assay: F-actin ring formation, phalloidin staining; type: cell-based, mouse; conditions: 5 days in 40 ng/ml CSF-1 and 200 ng/ml mRANK-L
Description: To detect F-actin rings, cells are fixed, such as by exposure to 3% paraformaldehyde, and visualized by staining cells with a fluorescent probe that binds specifically with actin. A suitable fluorescent tag is phalloidin, which can be obtained from Molecular Probes, Eugene, Oreg. The fluorescent signal is detected, for example, using a standard fluorescent microscope, and the number of cells having F-actin rings is visually quantified. An F-actin ring is identified as a continuous ring of F-actin at the periphery of a cell, and these distinct structures are visible through a microscope.
A procedure to detect F-actin rings was carried out as follows. Primary hematopoietic cells from the RANK −/− mice were infected with retroviral constructs encoding either the full-length human RANK cDNA or the RANK/TRAF6 binding mutant (RANK Δ340-421). Cells were cultured on LabTek Chamber slides with #1 borosilicate coverglasses (Nalge/Nunc). After incubation for 5 days in MEM containing 10% fetal bovine serum containing 40 ng/ml CSF-1 and 200 ng/ml mRANK-L. The media was aspirated, washed twice in PBS and then fixed in a solution of 3% paraformaldehyde for 10 minutes, followed by quenching in 50 mM NH4Cl. […] The fluorescent signal was detected using a standard fluorescent microscope, and F-actin rings were identified as continuous rings of F-actin at the periphery of individual cells.

B1: wild type RANK: full-length human RANK, receptor activator of NF-κB (SEQ ID NO:2), expressed from vector or retrovirus (protein, listed as Homo sapiens)
chain: MAPRARRRRPLFALLLLCALLARLQVALQIAPPCTSEKHYEHLGRCCNKCEPGKYMSSKCTTTSDSVCLPCGPDEYLDSWNEEDKCLLHKVCDTGKALVAVVAGNSTTPRRCACTAGYHWSQDCECCRRNTECAPGLGAQHPLQLNKDTVCKPCLAGYFSDAFSSTDKCRPWTNCTFLGKRVEHHGTEKSDAVCSSSLPARKPPNEPHVYLPGLIILLLFASVALVAAIIFGVCYRKKGKALTANLWHWINEACGRLSGDKESSGDSCVSTHTANFGQQGACEGVLLLTLEEKTFPEDMCYPDQGGVCQGTCVGGGPYAQGEDARMLSLVSKTEIEEDSFRQMPTEDEYMDRPSQPTDQLLFLTEPGSKSTPPFSEPLEVGENDSLSQCFTGTQSTVGSESCNCTEPLCRTDWTPMSSENYLQKEVDSGHCPHWAASPSPNWADVCTGCRNPPGEDCEPLVGSPKRGPLPQCAYGMGLPPEEEASRTEARDQPEDGADGRLPSSARAGAGSGSSPGGQSPASGNVTGNSNSTFISSGQVMNFKGDIIVVYVSQTSQEGAAAAAEPMGRPVQEETLARRDSFAGNGPRFPDPCGGPEGLREPEKASRPVQEQGGAKA
[1]
  activation of JNK: not
[2]
  increase of reporter expression (luciferase): 2.5 fold
RANK
  transcriptional activation, reporter detected on the cell surface: resulted in transcription of muIL-4R
[3]
  cells with F-actin rings: more than 50%
